Measurements: article PMC3741163, “CCL18 Exhibits a Regulatory Role through Inhibition of Receptor and Glycosaminoglycan Binding” (PLoS ONE, 2013)
Several values for one entry are separate records, joined by “and”; a condition that tells them apart may be missing. Equal entries are not always repeated.

T1: CCR3 (UniProt P51677 1-355)
T1 sequence (looked up): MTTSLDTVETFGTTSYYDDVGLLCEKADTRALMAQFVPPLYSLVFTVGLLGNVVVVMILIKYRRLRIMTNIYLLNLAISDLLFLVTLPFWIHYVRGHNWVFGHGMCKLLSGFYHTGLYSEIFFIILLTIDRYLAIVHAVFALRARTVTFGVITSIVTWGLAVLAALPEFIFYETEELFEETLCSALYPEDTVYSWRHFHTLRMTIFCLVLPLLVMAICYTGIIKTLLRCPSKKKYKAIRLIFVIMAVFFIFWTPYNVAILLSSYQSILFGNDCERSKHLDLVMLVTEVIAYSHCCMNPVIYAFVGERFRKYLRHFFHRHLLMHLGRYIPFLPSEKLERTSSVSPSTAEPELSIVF


Experiments:
[1] = target: T1, CCR3; test: cell-based or functional assay
[2] = target: T1, CCR3; test: cell-based or functional assay; remark: listed apart in the source
[3] = target: T1, CCR3; test: radioligand binding; equilibrium competition on L1.2/CCR3 transfectants, tracer 0.1 nM 125I-CCL18, 0.1 x10^6 cells/well, competitor 10^-6 to 10^-12 M, room temperature 4 h, filtration; settings: one partner purified
[4] = target: T1, CCR3; test: radioligand binding; equilibrium competition on L1.2/CCR3 transfectants, tracer 0.1 nM 125I-CCL11, 0.1 x10^6 cells/well, competitor 10^-6 to 10^-12 M, room temperature 4 h, filtration; settings: one partner purified

EC50 of CCL11-induced Ca2+ release in L1.2/CCR3 transfectants in the presence of 0 nM to 5 µM CCL18 (EC50 69.93 nM without CCL18, rising with the concentration) [1]	IC50 of CCL18 for inhibition of chemotaxis of L1.2/CCR3 transfectants to 1 nM CCL11 (experiment shown in Figure 1A) [1]	IC50 of CCL18 for inhibition of chemotaxis of L1.2/CCR3 transfectants to 1 nM CCL11 (mean of 7) [2]	IC50 of CCL18 for inhibition of chemotaxis of L1.2/CCR3 transfectants to 10 nM CCL5 [2]	IC50 of CCL18 for inhibition of chemotaxis of L1.2/CCR3 transfectants to 10 nM CCL26 [2]	IC50 of CCL18 for inhibition of chemotaxis of L1.2/CCR3 transfectants to 100 nM CCL15 [2]	IC50 [3]	IC50 [4]	Binder
10500 nM	397 nM	318 nM	40.8 nM	123 nM	2.9 nM	6.8 nM and 8.86 nM		CCL18 (ligand, human, UniProt P55774 21-89, looked up, CCL18 chemokine, unlabelled; also called PARC; MIP-4; source: purchased from PeptroTech or produced as previously described [30]) AQVGTNKELCCLVYTSWQIPQKFIVDYSETSPQCPKPGVILLTKRGRQICADPNKKWVQKYISDLKLNA
							7.4 nM and 13.2 nM	CCL11 (ligand, CCL11 chemokine, unlabelled; source: purchased from PeptroTech or produced as previously described [30]) not shown
